According to article PMC6433275 (Nature structural & molecular biology, 2019):

Target: T1, E. coli MukB (E. coli, UniProt P22523 1-1486)
T1 sequence: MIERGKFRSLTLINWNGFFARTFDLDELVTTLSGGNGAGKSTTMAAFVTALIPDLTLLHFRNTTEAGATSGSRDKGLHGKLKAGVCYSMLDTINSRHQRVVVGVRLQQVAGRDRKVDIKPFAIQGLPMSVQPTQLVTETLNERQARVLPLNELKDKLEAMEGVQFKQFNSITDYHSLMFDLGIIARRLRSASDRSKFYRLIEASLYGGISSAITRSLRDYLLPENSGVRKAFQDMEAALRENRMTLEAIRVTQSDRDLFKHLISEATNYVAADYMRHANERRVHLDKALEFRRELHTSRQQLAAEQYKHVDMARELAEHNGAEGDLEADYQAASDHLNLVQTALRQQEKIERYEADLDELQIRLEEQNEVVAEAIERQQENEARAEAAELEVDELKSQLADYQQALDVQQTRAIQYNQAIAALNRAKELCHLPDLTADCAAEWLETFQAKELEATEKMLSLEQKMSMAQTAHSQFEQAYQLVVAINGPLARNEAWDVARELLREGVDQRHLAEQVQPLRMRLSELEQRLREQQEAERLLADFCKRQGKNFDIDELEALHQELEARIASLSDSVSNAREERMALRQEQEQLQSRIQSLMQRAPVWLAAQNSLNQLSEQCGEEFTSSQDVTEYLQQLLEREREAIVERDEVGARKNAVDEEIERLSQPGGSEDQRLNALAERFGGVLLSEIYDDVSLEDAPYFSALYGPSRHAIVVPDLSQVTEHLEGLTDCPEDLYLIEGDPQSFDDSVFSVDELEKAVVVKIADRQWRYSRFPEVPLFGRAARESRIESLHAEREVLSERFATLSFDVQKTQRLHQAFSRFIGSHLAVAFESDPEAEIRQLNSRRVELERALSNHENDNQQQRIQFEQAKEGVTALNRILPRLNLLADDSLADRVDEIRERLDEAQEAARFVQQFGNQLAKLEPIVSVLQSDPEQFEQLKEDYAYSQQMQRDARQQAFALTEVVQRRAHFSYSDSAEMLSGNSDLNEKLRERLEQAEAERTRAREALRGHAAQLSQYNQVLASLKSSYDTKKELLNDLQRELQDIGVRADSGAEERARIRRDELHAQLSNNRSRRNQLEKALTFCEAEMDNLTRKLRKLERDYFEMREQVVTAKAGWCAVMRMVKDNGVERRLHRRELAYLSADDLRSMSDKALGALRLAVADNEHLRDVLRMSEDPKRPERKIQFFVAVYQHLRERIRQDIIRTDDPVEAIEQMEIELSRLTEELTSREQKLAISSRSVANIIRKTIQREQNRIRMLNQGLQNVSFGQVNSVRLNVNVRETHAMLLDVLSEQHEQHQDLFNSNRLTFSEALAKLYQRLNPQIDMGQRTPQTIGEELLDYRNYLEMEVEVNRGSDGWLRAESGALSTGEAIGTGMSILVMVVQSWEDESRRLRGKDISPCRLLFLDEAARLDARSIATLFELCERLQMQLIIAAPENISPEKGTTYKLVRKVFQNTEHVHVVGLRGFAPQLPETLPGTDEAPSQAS
Test: SEC

binding result: binds
B1: E. coli MukEF complex (complex)
chain 1: MSSTNIEQVMPVKLAQALANPLFPALDSALRSGRHIGLDELDNHAFLMDFQEYLEEFYARYNVELIRAPEGFFYLRPRSTTLIPRSVLSELDMMVGKILCYLYLSPERLANEGIFTQQELYDELLTLADEAKLLKLVNNRSTGSDVDRQKLQEKVRSSLNRLRRLGMVWFMGHDSSKFRITESVFRFGADVRAGDDPREAQRRLIRDGEAMPIENHLQLNDETEENQPDSGEEE
chain 2: MSEFSQTVPELVAWARKNDFSISLPVDRLSFLLAVATLNGERLDGEMSEGELVDAFRHVSDAFEQTSETIGVRANNAINDMVRQRLLNRFTSEQAEGNAIYRLTPLGIGITDYYIRQREFSTLRLSMQLSIVAGELKRAADAAEEGGDEFHWHRNVYAPLKYSVAEIFDSIDLTQRLMDEQQQQVKDDIAQLLNKDWRAAISSCELLLSETSGTLRELQDTLEAAGDKLQANLLRIQDATMTHDDLHFVDRLVFDLQSKLDRIISWGQQSIDLWIGYDRHVHKFIRTAIDMDKNRVFAQRLRQSVQTYFDEPWALTYANADRLLDMRDEEMALRDEEVTGELPEDLEYEEFNEIREQLAAIIEEQLAVYKTRQVPLDLGLVVREYLSQYPRARHFDVARIVIDQAVRLGVAQADFTGLPAKWQPINDYGAKVQAHVIDKY
